Target: cardiac ryanodine receptor (RyR2) (rat (endogenous in neonatal ventricular cardiomyocytes)) (UniProt B0LPN4)
Chain of UniProt B0LPN4 (B0LPN4 whole entry): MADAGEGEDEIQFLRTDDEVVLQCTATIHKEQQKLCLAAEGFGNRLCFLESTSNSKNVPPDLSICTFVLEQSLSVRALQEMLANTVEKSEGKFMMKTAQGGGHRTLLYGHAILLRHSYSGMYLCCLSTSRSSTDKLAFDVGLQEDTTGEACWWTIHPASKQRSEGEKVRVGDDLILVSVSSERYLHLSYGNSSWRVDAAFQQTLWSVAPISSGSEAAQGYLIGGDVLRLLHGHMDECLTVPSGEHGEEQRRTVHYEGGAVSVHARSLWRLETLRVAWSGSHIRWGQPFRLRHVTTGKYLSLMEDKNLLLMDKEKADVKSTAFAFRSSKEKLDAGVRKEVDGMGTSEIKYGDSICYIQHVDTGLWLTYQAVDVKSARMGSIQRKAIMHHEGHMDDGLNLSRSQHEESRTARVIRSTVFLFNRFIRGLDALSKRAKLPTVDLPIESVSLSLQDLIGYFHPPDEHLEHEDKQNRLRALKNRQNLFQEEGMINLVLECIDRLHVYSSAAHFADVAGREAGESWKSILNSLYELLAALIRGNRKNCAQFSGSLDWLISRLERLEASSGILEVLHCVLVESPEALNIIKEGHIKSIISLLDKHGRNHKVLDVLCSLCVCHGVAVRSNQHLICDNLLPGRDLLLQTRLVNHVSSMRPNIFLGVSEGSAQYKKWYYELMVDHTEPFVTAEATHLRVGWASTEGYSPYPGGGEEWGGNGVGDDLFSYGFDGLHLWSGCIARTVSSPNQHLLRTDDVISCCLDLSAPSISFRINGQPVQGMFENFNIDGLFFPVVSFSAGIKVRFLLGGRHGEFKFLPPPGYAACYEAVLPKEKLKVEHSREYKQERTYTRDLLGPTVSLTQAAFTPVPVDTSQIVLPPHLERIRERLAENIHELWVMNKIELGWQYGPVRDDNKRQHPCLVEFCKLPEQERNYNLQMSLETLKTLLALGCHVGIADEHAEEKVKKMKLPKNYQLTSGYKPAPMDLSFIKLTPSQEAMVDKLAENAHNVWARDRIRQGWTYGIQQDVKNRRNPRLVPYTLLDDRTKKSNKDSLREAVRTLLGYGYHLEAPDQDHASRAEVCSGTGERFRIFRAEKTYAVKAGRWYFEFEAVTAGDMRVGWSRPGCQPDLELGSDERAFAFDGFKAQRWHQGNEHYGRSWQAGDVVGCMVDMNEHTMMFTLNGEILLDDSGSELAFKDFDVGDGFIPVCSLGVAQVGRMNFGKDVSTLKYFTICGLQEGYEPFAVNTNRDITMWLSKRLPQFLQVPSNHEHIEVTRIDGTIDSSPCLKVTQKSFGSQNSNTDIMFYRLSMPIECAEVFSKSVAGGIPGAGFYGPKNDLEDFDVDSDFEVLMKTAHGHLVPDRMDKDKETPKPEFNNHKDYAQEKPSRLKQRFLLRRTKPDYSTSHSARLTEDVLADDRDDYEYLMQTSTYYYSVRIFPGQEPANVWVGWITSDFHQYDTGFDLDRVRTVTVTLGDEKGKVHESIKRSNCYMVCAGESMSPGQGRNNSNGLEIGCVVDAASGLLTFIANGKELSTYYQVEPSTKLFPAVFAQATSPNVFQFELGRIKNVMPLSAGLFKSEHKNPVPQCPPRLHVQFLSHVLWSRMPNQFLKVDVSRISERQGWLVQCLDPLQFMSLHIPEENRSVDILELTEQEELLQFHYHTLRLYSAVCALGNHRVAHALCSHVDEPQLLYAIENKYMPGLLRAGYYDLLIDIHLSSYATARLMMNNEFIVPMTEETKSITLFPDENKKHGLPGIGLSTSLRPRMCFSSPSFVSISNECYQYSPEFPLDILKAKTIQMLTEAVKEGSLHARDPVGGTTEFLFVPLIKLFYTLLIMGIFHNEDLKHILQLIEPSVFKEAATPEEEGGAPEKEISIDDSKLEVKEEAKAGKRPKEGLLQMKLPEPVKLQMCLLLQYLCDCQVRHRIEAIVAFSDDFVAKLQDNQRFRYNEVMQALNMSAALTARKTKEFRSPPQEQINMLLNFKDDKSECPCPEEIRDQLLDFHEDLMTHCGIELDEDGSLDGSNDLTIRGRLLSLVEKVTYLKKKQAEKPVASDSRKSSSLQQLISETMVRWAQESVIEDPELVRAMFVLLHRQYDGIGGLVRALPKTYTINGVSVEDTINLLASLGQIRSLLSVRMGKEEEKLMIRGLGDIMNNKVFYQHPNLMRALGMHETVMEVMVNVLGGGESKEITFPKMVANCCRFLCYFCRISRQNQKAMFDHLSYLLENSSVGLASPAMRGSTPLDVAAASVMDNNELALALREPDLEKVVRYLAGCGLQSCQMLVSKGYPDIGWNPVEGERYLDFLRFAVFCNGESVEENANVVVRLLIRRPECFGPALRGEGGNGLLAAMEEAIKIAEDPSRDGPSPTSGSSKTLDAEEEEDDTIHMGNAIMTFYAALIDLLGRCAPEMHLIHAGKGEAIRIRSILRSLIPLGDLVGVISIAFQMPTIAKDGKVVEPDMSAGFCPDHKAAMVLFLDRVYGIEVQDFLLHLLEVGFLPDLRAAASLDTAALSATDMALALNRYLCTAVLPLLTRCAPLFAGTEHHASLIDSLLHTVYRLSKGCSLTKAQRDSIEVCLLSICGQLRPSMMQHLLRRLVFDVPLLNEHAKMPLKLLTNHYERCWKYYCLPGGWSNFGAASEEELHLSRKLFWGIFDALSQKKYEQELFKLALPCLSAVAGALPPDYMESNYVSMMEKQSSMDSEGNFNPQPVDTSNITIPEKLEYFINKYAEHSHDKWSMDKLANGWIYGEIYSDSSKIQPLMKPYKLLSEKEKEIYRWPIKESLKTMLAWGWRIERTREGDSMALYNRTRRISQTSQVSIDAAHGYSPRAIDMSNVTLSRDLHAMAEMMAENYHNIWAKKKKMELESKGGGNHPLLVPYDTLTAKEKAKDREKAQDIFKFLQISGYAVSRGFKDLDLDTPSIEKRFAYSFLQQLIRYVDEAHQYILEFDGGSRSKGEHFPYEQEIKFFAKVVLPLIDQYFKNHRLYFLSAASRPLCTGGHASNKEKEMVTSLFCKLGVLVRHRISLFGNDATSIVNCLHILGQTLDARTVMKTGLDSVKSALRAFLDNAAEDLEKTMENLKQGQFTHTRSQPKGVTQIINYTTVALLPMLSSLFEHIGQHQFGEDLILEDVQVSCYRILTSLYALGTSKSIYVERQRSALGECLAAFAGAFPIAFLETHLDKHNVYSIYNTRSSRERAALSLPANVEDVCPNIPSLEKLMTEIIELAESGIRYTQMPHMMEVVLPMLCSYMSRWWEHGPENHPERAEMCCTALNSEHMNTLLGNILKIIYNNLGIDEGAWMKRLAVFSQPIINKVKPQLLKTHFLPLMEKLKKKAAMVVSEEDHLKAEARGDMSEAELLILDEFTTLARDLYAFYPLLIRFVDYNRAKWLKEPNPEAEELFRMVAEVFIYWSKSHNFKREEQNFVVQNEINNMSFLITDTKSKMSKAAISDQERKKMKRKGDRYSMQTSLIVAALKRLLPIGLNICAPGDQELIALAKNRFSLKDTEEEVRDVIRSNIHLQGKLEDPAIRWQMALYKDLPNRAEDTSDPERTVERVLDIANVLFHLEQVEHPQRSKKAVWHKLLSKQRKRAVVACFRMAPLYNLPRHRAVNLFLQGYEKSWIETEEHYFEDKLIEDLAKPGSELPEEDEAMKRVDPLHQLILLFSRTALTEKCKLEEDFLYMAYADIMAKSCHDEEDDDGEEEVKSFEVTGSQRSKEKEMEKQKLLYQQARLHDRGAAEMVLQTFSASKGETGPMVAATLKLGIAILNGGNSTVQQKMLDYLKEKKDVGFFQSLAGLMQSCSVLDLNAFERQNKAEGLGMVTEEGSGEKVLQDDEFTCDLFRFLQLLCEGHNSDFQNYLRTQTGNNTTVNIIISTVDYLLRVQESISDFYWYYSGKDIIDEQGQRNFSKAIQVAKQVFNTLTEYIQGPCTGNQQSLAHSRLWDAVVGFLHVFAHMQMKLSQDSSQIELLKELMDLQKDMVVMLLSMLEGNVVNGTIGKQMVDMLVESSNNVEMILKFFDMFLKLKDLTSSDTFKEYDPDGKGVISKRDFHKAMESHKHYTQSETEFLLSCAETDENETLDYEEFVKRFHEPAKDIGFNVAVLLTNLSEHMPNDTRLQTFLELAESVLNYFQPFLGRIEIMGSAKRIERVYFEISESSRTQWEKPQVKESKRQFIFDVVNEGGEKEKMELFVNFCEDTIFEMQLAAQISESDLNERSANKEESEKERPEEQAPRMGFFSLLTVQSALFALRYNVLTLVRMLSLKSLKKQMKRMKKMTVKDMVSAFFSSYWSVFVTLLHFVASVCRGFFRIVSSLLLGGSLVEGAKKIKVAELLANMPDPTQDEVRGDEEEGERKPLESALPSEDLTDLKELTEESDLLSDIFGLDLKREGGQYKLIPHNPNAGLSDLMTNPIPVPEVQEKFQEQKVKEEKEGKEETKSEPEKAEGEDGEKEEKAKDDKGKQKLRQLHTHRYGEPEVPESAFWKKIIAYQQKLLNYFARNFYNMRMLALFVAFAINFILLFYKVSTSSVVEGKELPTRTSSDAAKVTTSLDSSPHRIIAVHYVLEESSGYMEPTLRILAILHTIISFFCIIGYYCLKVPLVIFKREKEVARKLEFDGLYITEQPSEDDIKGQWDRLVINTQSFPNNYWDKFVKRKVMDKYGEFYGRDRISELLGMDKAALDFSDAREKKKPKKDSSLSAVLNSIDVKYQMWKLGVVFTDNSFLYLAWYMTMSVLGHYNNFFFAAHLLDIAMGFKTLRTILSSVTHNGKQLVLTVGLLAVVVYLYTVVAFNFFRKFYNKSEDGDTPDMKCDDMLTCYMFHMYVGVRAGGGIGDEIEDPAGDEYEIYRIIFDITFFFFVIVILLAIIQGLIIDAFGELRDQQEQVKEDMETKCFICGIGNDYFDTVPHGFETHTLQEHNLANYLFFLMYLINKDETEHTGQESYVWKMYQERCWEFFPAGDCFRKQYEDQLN

B1: C-terminal half of GSTM2 (GSTM2C) (domain or fragment)
chain: PMTLGYWNIRGLAHSIRLLLEYTDSSYEEKKYTMGDAPDYDRSQWLNEKFKLGLDFPNLPYLIDGTHKITQSNAILRYIARKHNLCGESEKEQIREDILENQFMDSRMQLAKLCYDPDFEKLKPEYLQALPEMLKLYSQFLGKQPWFLGDKITFVDFIAYDVLERNQVFEPSCLDAFPNLKDFISRFEGLEKISAYMKSSRFLPRPVFTKMAVWGNK
- field-stimulated myocyte shortening after 2 h with 5, 10 and 15 uM GSTM2C, as percent of control (3.0%, 10.9% and 42.8%); significant only at 15 uM: 42.8 % of control

Reference: publication PMC5017731
